In US20210388110A1 (published 2021):
Where a chain is given by its changes, count along the chain named. Values belong to the binder of their own block, whether it stands above or below them.

Target: T1, soluble human GPC3 (human, UniProt P51654 25-563, limits assumed)
T1 construct: soluble human GPC3 as analyte; also called glypican 3
Assay: SPR (Biacore), soluble human GPC3

T1 sequence (P51654 other isoform, or with tags, fused parts or gaps limits assumed, form in doubt): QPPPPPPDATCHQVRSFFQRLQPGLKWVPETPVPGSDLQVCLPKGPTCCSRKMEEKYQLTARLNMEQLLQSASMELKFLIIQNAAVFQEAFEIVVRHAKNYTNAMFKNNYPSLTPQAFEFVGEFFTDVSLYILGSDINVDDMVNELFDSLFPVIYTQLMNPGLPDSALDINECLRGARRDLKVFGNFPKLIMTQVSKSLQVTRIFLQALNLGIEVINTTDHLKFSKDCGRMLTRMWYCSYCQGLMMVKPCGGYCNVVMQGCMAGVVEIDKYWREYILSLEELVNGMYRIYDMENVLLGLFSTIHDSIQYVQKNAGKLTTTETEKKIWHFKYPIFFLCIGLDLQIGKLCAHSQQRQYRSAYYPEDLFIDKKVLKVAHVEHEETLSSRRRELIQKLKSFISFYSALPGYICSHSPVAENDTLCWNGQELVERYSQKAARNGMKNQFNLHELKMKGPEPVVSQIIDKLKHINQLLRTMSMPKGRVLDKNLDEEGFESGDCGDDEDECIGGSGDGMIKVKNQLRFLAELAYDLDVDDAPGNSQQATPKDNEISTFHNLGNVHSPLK

B2: H0610-G1dh/none-Hi-Kn010G3/L0217-k0 (antibody, human IgG1, kappa)
heavy: not shown
chain: EPKSSDKTHTCPPCPAPELLGGPSVFLFPPKPKDTLMISRTPEVTCVVVDVSHEDPEVKFNWYVDGVEVHNAKTKPREEQYNSTYRVVSVLTVLHQDWLNGKEYKCKVSNKALPAPIEKTISKAKGQPREPQVCTLPPSRDELTKNQVSLWCLVKGFYPSDIAVEWESNGQPENNYKTTPPVLDSDGSFFLYSKLTVDKSRWQQGNVFSCSVMHEALHNRYTQKSLSLSP
light: DIVMTQSPLSLPVTPGEPASISCRPSQSLVHSNRNTYLHWYQQKPGQAPRLLIYKVSNRFRGVPDRFSGSGSGTDFTLKISRVEAEDVGVYYCGQGTQVPYTFGQGTKLEIKRTVAAPSVFIFPPSDEQLKSGTASVVCLLNNFYPREAKVQWKVDNALQSGNSQESVTEQDSKDSTYSLSSTLTLSKADYEKHKVYACEVTHQGLSSPVTKSFNRGEC
notes: single-arm (one Fab)
Kd: 1.79 nM

B9: H0610-G1dh/none-Hi-Kn010G3/L0160-k0 (antibody, human IgG1, kappa)
heavy: not shown
chain: B2 chain
light: B2 light with P25S, R61S, G94T
notes: single-arm (one Fab)
Kd: 2.12 nM

B12: H0610-G1dh/none-Hi-Kn010G3/L0161-k0 (antibody, human IgG1, kappa)
heavy: not shown
chain: B2 chain
light: B2 light with P25S, R61S, G94V
notes: single-arm (one Fab)
Kd: 0.973 nM

B16: H0610-G1dh/none-Hi-Kn010G3/L0216-k0 (antibody, human IgG1, kappa)
heavy: not shown
chain: B2 chain
light: B2 light with P25S, S28P
notes: single-arm (one Fab)
Kd: 1.86 nM

B17: H0610-G1dh/none-Hi-Kn010G3/L0168-k0 (antibody, human IgG1, kappa)
heavy: not shown
chain: B2 chain
light: B2 light with P25S, R61S, G96T
notes: single-arm (one Fab)
Kd: 0.699 nM

B20: H0610-G1dh/none-Hi-Kn010G3/L0173-k0 (antibody, human IgG1, kappa)
heavy: not shown
chain: B2 chain
light: B2 light with P25S, R61S, V99F
notes: single-arm (one Fab)
Kd: 2.83 nM

B22: H0610-G1dh/none-Hi-Kn010G3/L0220-k0 (antibody, human IgG1, kappa)
heavy: not shown
chain: B2 chain
light: B2 light with P25S, S28P, G94Y
notes: single-arm (one Fab)
Kd: 1.36 nM

B23: H0610-G1dh/none-Hi-Kn010G3/L0163-k0 (antibody, human IgG1, kappa)
heavy: not shown
chain: B2 chain
light: B2 light with P25S, R61S, G94Y
notes: single-arm (one Fab)
Kd: 3.38 nM

B25: H0610-G1dh/none-Hi-Kn010G3/L0213-k0 (antibody, human IgG1, kappa)
heavy: not shown
chain: B2 chain
light: B2 light with P25S, L29P, L38I
notes: single-arm (one Fab)
Kd: 1.25 nM

B26: H0610-G1dh/none-Hi-Kn010G3/L0186-k0 (antibody, human IgG1, kappa)
heavy: not shown
chain: B2 chain
light: B2 light with P25S, R61S, V99W
notes: single-arm (one Fab)
Kd: 1.08 nM

B27: H0610-G1dh/none-Hi-Kn010G3/L0175-k0 (antibody, human IgG1, kappa)
heavy: not shown
chain: B2 chain
light: B2 light with P25S, R61S, V99H
notes: single-arm (one Fab)
Kd: 3.84 nM

B29: H0610-G1dh/none-Hi-Kn010G3/L0226-k0 (antibody, human IgG1, kappa)
heavy: not shown
chain: B2 chain
light: B2 light with P25S, L29P, L38I, R61S, G94I
notes: single-arm (one Fab)
Kd: 0.093 nM

B31: H0610-G1dh/none-Hi-Kn010G3/L0202-k0 (antibody, human IgG1, kappa)
heavy: not shown
chain: B2 chain
light: B2 light with P25S, L29P, N35W, R61S
notes: single-arm (one Fab)
Kd: 1.22 nM

B32: H0610-G1dh/none-Hi-Kn010G3/L0211-k0 (antibody, human IgG1, kappa)
heavy: not shown
chain: B2 chain
light: B2 light with P25S, S28P, L29P, R61S, G94Y
notes: single-arm (one Fab)
Kd: 0.647 nM

B36: H0610-G1dh/none-Hi-Kn010G3/L0206-k0 (antibody, human IgG1, kappa)
heavy: not shown
chain: B2 chain
light: B2 light with P25S, L29P, R61S, G94Y
notes: single-arm (one Fab)
Kd: 0.865 nM

B38: H0610-G1dh/none-Hi-Kn010G3/L0167-k0 (antibody, human IgG1, kappa)
heavy: not shown
chain: B2 chain
light: B2 light with P25S, R61S, G96S
notes: single-arm (one Fab)
Kd: 0.211 nM

B39: H0610-G1dh/none-Hi-Kn010G3/L0181-k0 (antibody, human IgG1, kappa)
heavy: not shown
chain: B2 chain
light: B2 light with P25S, R61S, V99P
notes: single-arm (one Fab)
Kd: 3.51 nM

B41: H0610-G1dh/none-Hi-Kn010G3/L0231-k0 (antibody, human IgG1, kappa)
heavy: not shown
chain: B2 chain
light: B2 light with P25S, L29P, L38I, R61S, G94Y, V99W
notes: single-arm (one Fab)
Kd: 0.589 nM

B43: H0610-G1dh/none-Hi-Kn010G3/L0203-k0 (antibody, human IgG1, kappa)
heavy: not shown
chain: B2 chain
light: B2 light with P25S, L29P, L38I, R61S
notes: single-arm (one Fab)
Kd: 2.11 nM

B46: H0610-G1dh/none-Hi-Kn010G3/L0212-k0 (antibody, human IgG1, kappa)
heavy: not shown
chain: B2 chain
light: B2 light with L29P, R61S, G94Y
notes: single-arm (one Fab)
Kd: 0.994 nM

B47: H0610-G1dh/none-Hi-Kn010G3/L0224-k0 (antibody, human IgG1, kappa)
heavy: not shown
chain: B2 chain
light: B2 light with P25S, L29P, L38I, R61P, G94Y
notes: single-arm (one Fab)
Kd: 0.243 nM

The remaining lines, values ahead:

Kd: 3.86 nM
B1: H0610-G1dh/none-Hi-Kn010G3/L0141-k0 (antibody, human IgG1, kappa)
heavy: not shown
chain: B2 chain
light: B2 light with P25S, R61M
notes: single-arm (one Fab)

Kd: 2.36 nM
B3: H0610-G1dh/none-Hi-Kn010G3/L0152-k0 (antibody, human IgG1, kappa)
heavy: not shown
chain: B2 chain
light: B2 light with P25S, R61S, G94F
notes: single-arm (one Fab)

Kd: 1.64 nM
B4: H0610-G1dh/none-Hi-Kn010G3/L0215-k0 (antibody, human IgG1, kappa)
heavy: not shown
chain: B2 chain
light: B2 light with P25S, S28P, L29P, L38I, R61S
notes: single-arm (one Fab)

Kd: 1.28 nM
B5: H0610-G1dh/none-Hi-Kn010G3/L0155-k0 (antibody, human IgG1, kappa)
heavy: not shown
chain: B2 chain
light: B2 light with P25S, R61S, G94L
notes: single-arm (one Fab)

Kd: 2.28 nM
B6: H0610-G1dh/none-Hi-Kn010G3/L0219-k0 (antibody, human IgG1, kappa)
heavy: not shown
chain: B2 chain
light: B2 light with P25S, L38I
notes: single-arm (one Fab)

Kd: 1.2 nM
B7: H0610-G1dh/none-Hi-Kn010G3/L0229-k0 (antibody, human IgG1, kappa)
heavy: not shown
chain: B2 chain
light: B2 light with P25S, L29P, L38I, R61S, G94Y, G96S
notes: single-arm (one Fab)

Kd: 0.408 nM
B8: H0610-G1dh/none-Hi-Kn010G3/L0227-k0 (antibody, human IgG1, kappa)
heavy: not shown
chain: B2 chain
light: B2 light with P25S, L29P, L38I, R61S, G94L
notes: single-arm (one Fab)

Kd: 0.657 nM
B10: H0610-G1dh/none-Hi-Kn010G3/L0214-k0 (antibody, human IgG1, kappa)
heavy: not shown
chain: B2 chain
light: B2 light with P25S, S28P, L29P
notes: single-arm (one Fab)

Kd: 1.01 nM
B11: H0610-G1dh/none-Hi-Kn010G3/L0205-k0 (antibody, human IgG1, kappa)
heavy: not shown
chain: B2 chain
light: B2 light with P25S, L29P, R61W
notes: single-arm (one Fab)

Kd: 1.01 nM
B13: H0610-G1dh/none-Hi-Kn010G3/L0154-k0 (antibody, human IgG1, kappa)
heavy: not shown
chain: B2 chain
light: B2 light with P25S, R61S, G94I
notes: single-arm (one Fab)

Kd: 0.727 nM
B14: H0610-G1dh/none-Hi-Kn010G3/L0204-k0 (antibody, human IgG1, kappa)
heavy: not shown
chain: B2 chain
light: B2 light with P25S, L29P
notes: single-arm (one Fab)

Kd: 2.66 nM
B15: H0610-G1dh/none-Hi-Kn010G3/L0145-k0 (antibody, human IgG1, kappa)
heavy: not shown
chain: B2 chain
light: B2 light with P25S
notes: single-arm (one Fab)

Kd: 1.04 nM
B18: H0610-G1dh/none-Hi-Kn010G3/L0200-k0 (antibody, human IgG1, kappa)
heavy: not shown
chain: B2 chain
light: B2 light with L29P, R61S
notes: single-arm (one Fab)

Kd: 1.99 nM
B19: H0610-G1dh/none-Hi-Kn010G3/L0218-k0 (antibody, human IgG1, kappa)
heavy: not shown
chain: B2 chain
light: B2 light with P25S, G94Y
notes: single-arm (one Fab)

Kd: 2.6 nM
B21: H0610-G1dh/none-Hi-Kn010G3/L0157-k0 (antibody, human IgG1, kappa)
heavy: not shown
chain: B2 chain
light: B2 light with P25S, R61S, G94N
notes: single-arm (one Fab)

Kd: 3.28 nM
B24: H0610-G1dh/none-Hi-Kn010G3/L0148-k0 (antibody, human IgG1, kappa)
heavy: not shown
chain: B2 chain
light: B2 light with P25S, R61W
notes: single-arm (one Fab)

Kd: 2.16 nM
B28: H0610-G1dh/none-Hi-Kn010G3/L0149-k0 (antibody, human IgG1, kappa)
heavy: not shown
chain: B2 chain
light: B2 light with P25S, R61S, G94A
notes: single-arm (one Fab)

Kd: 0.573 nM
B30: H0610-G1dh/none-Hi-Kn010G3/L0143-k0 (antibody, human IgG1, kappa)
heavy: not shown
chain: B2 chain
light: B2 light with P25S, R61P
notes: single-arm (one Fab)

Kd: 4 nM
B33: H0610-G1dh/none-Hi-Kn010G3/L0230-k0 (antibody, human IgG1, kappa)
heavy: not shown
chain: B2 chain
light: B2 light with P25S, L29P, L38I, R61S, G94Y, G96T
notes: single-arm (one Fab)

Kd: 0.53 nM
B34: H0610-G1dh/none-Hi-Kn010G3/L0208-k0 (antibody, human IgG1, kappa)
heavy: not shown
chain: B2 chain
light: B2 light with P25S, L29P, R61W, G94Y
notes: single-arm (one Fab)

Kd: 0.202 nM
B35: H0610-G1dh/none-Hi-Kn010G3/L0228-k0 (antibody, human IgG1, kappa)
heavy: not shown
chain: B2 chain
light: B2 light with P25S, L29P, L38I, R61S, G94V
notes: single-arm (one Fab)

Kd: 1.25 nM
B37: H0610-G1dh/none-Hi-Kn010G3/L0151-k0 (antibody, human IgG1, kappa)
heavy: not shown
chain: B2 chain
light: B2 light with P25S, R61S, G94E
notes: single-arm (one Fab)

Kd: 0.00014 nM
B40: H0610-G1dh/none-Hi-Kn010G3/L0222-k0 (antibody, human IgG1, kappa)
heavy: not shown
chain: B2 chain
light: B2 light with P25S, L29P, L38I, H39Q, R61S, G94Y
notes: single-arm (one Fab)

Kd: 1.12 nM
B42: H0610-G1dh/none-Hi-Kn010G3/L0209-k0 (antibody, human IgG1, kappa)
heavy: not shown
chain: B2 chain
light: B2 light with P25S, L29P, L38I, R61S, G94Y
notes: single-arm (one Fab)

Kd: 1.13 nM
B44: H0610-G1dh/none-Hi-Kn010G3/L0201-k0 (antibody, human IgG1, kappa)
heavy: not shown
chain: B2 chain
light: B2 light with P25S, S28P, L29P, R61S
notes: single-arm (one Fab)

Kd: 0.475 nM
B45: H0610-G1dh/none-Hi-Kn010G3/L0223-k0 (antibody, human IgG1, kappa)
heavy: not shown
chain: B2 chain
light: B2 light with P25S, L29P, L38I, F60L, R61S, G94Y
notes: single-arm (one Fab)
